{
  "source": "patent US20240279278A1",
  "about": "“NMU RECEPTOR 2 AGONISTS” (Boehringer Ingelheim International GmbH, priority 2023, published 2024)",
  "binders": {"B1": {"name": "C18DA-gGlu3-Sar9-AEPipAc-Tyr-Phe-NMeLeu-Nle-Orn-NMeAla-Arg-Gly-NH2 (peptide)", "peptide": "EEEXXXXXXXXXXYFLXXARG", "HELM": "PEPTIDE1{[O=C(O)CCCCCCCCCCCCCCCCC(=O)[*:2]].[gGlu].[gGlu].[gGlu].[Sar].[Sar].[Sar].[Sar].[Sar].[Sar].[Sar].[Sar].[Sar].[O=C(CN1CCN(CCN[*:1])CC1)[*:2]].Y.F.[meL].[Nle].[Orn].[meA].R.G.[am]}$$$$V2.0", "SMILES": "CCCC[C@H](NC(=O)[C@H](CC(C)C)N(C)C(=O)[C@H](Cc1ccccc1)NC(=O)[C@H](Cc1ccc(O)cc1)NC(=O)CN1CCN(CCNC(=O)CN(C)C(=O)CN(C)C(=O)CN(C)C(=O)CN(C)C(=O)CN(C)C(=O)CN(C)C(=O)CN(C)C(=O)CN(C)C(=O)CN(C)C(=O)CC[C@H](NC(=O)CC[C@H](NC(=O)CC[C@H](NC(=O)CCCCCCCCCCCCCCCCC(=O)O)C(=O)O)C(=O)O)C(=O)O)CC1)C(=O)N[C@@H](CCCN)C(=O)N(C)[C@@H](C)C(=O)N[C@@H](CCCNC(=N)N)C(=O)NCC(N)=O"}, "B2": {"name": "C18DA-gGlu3-Sar6-AEPipAc-Tyr-Phe-NMeLeu-Nle-Arg-Pro-Arg-Gly-NH2 (peptide)", "peptide": "EEEXXXXXXXYFLXRPRG", "HELM": "PEPTIDE1{[O=C(O)CCCCCCCCCCCCCCCCC(=O)[*:2]].[gGlu].[gGlu].[gGlu].[Sar].[Sar].[Sar].[Sar].[Sar].[Sar].[O=C(CN1CCN(CCN[*:1])CC1)[*:2]].Y.F.[meL].[Nle].R.P.R.G.[am]}$$$$V2.0", "SMILES": "CCCC[C@H](NC(=O)[C@H](CC(C)C)N(C)C(=O)[C@H](Cc1ccccc1)NC(=O)[C@H](Cc1ccc(O)cc1)NC(=O)CN1CCN(CCNC(=O)CN(C)C(=O)CN(C)C(=O)CN(C)C(=O)CN(C)C(=O)CN(C)C(=O)CN(C)C(=O)CC[C@H](NC(=O)CC[C@H](NC(=O)CC[C@H](NC(=O)CCCCCCCCCCCCCCCCC(=O)O)C(=O)O)C(=O)O)C(=O)O)CC1)C(=O)N[C@@H](CCCNC(=N)N)C(=O)N1CCC[C@H]1C(=O)N[C@@H](CCCNC(=N)N)C(=O)NCC(N)=O"}, "B3": {"name": "C20DA-gGlu3-Sar12-AEPipAc-Tyr-Phe-NMeLeu-Nle-Arg-NMeAla-Arg-Gly-NH2 (peptide)", "peptide": "EEEXXXXXXXXXXXXXYFLXRARG", "HELM": "PEPTIDE1{[O=C(O)CCCCCCCCCCCCCCCCCCC(=O)[*:2]].[gGlu].[gGlu].[gGlu].[Sar].[Sar].[Sar].[Sar].[Sar].[Sar].[Sar].[Sar].[Sar].[Sar].[Sar].[Sar].[O=C(CN1CCN(CCN[*:1])CC1)[*:2]].Y.F.[meL].[Nle].R.[meA].R.G.[am]}$$$$V2.0", "SMILES": "CCCC[C@H](NC(=O)[C@H](CC(C)C)N(C)C(=O)[C@H](Cc1ccccc1)NC(=O)[C@H](Cc1ccc(O)cc1)NC(=O)CN1CCN(CCNC(=O)CN(C)C(=O)CN(C)C(=O)CN(C)C(=O)CN(C)C(=O)CN(C)C(=O)CN(C)C(=O)CN(C)C(=O)CN(C)C(=O)CN(C)C(=O)CN(C)C(=O)CN(C)C(=O)CN(C)C(=O)CC[C@H](NC(=O)CC[C@H](NC(=O)CC[C@H](NC(=O)CCCCCCCCCCCCCCCCCCC(=O)O)C(=O)O)C(=O)O)C(=O)O)CC1)C(=O)N[C@@H](CCCNC(=N)N)C(=O)N(C)[C@@H](C)C(=O)N[C@@H](CCCNC(=N)N)C(=O)NCC(N)=O"}, "B4": {"name": "C18DA-gGlu2-Sar6-AEPipAc-Tyr-Phe-NMeLeu-Nle-Arg-Pro-Arg-Gly-NH2 (peptide)", "peptide": "EEXXXXXXXYFLXRPRG", "HELM": "PEPTIDE1{[O=C(O)CCCCCCCCCCCCCCCCC(=O)[*:2]].[gGlu].[gGlu].[Sar].[Sar].[Sar].[Sar].[Sar].[Sar].[O=C(CN1CCN(CCN[*:1])CC1)[*:2]].Y.F.[meL].[Nle].R.P.R.G.[am]}$$$$V2.0", "SMILES": "CCCC[C@H](NC(=O)[C@H](CC(C)C)N(C)C(=O)[C@H](Cc1ccccc1)NC(=O)[C@H](Cc1ccc(O)cc1)NC(=O)CN1CCN(CCNC(=O)CN(C)C(=O)CN(C)C(=O)CN(C)C(=O)CN(C)C(=O)CN(C)C(=O)CN(C)C(=O)CC[C@H](NC(=O)CC[C@H](NC(=O)CCCCCCCCCCCCCCCCC(=O)O)C(=O)O)C(=O)O)CC1)C(=O)N[C@@H](CCCNC(=N)N)C(=O)N1CCC[C@H]1C(=O)N[C@@H](CCCNC(=N)N)C(=O)NCC(N)=O"}, "B5": {"name": "C20DA-gGlu3-Sar9-AEPipAc-Tyr-Phe-NMeLeu-Nle-Dbu-NMeAla-Arg-Gly-NH2 (peptide)", "peptide": "EEEXXXXXXXXXXYFLXXARG", "HELM": "PEPTIDE1{[O=C(O)CCCCCCCCCCCCCCCCCCC(=O)[*:2]].[gGlu].[gGlu].[gGlu].[Sar].[Sar].[Sar].[Sar].[Sar].[Sar].[Sar].[Sar].[Sar].[O=C(CN1CCN(CCN[*:1])CC1)[*:2]].Y.F.[meL].[Nle].[Dab].[meA].R.G.[am]}$$$$V2.0", "SMILES": "CCCC[C@H](NC(=O)[C@H](CC(C)C)N(C)C(=O)[C@H](Cc1ccccc1)NC(=O)[C@H](Cc1ccc(O)cc1)NC(=O)CN1CCN(CCNC(=O)CN(C)C(=O)CN(C)C(=O)CN(C)C(=O)CN(C)C(=O)CN(C)C(=O)CN(C)C(=O)CN(C)C(=O)CN(C)C(=O)CN(C)C(=O)CC[C@H](NC(=O)CC[C@H](NC(=O)CC[C@H](NC(=O)CCCCCCCCCCCCCCCCCCC(=O)O)C(=O)O)C(=O)O)C(=O)O)CC1)C(=O)N[C@@H](CCN)C(=O)N(C)[C@@H](C)C(=O)N[C@@H](CCCNC(=N)N)C(=O)NCC(N)=O"}, "B6": {"name": "C18DA-gGlu2-Sar9-AEPipAc-Tyr-Phe-NMeLeu-Nle-Arg-NMeAla-Arg-Gly-NH2 (peptide)", "peptide": "EEXXXXXXXXXXYFLXRARG", "HELM": "PEPTIDE1{[O=C(O)CCCCCCCCCCCCCCCCC(=O)[*:2]].[gGlu].[gGlu].[Sar].[Sar].[Sar].[Sar].[Sar].[Sar].[Sar].[Sar].[Sar].[O=C(CN1CCN(CCN[*:1])CC1)[*:2]].Y.F.[meL].[Nle].R.[meA].R.G.[am]}$$$$V2.0", "SMILES": "CCCC[C@H](NC(=O)[C@H](CC(C)C)N(C)C(=O)[C@H](Cc1ccccc1)NC(=O)[C@H](Cc1ccc(O)cc1)NC(=O)CN1CCN(CCNC(=O)CN(C)C(=O)CN(C)C(=O)CN(C)C(=O)CN(C)C(=O)CN(C)C(=O)CN(C)C(=O)CN(C)C(=O)CN(C)C(=O)CN(C)C(=O)CC[C@H](NC(=O)CC[C@H](NC(=O)CCCCCCCCCCCCCCCCC(=O)O)C(=O)O)C(=O)O)CC1)C(=O)N[C@@H](CCCNC(=N)N)C(=O)N(C)[C@@H](C)C(=O)N[C@@H](CCCNC(=N)N)C(=O)NCC(N)=O"}, "B7": {"name": "C18DA-gGlu3-Sar9-AEPipAc-Tyr-Phe-NMeLeu-Nle-Arg-Pro-Arg-Gly-NH2 (peptide)", "peptide": "EEEXXXXXXXXXXYFLXRPRG", "HELM": "PEPTIDE1{[O=C(O)CCCCCCCCCCCCCCCCC(=O)[*:2]].[gGlu].[gGlu].[gGlu].[Sar].[Sar].[Sar].[Sar].[Sar].[Sar].[Sar].[Sar].[Sar].[O=C(CN1CCN(CCN[*:1])CC1)[*:2]].Y.F.[meL].[Nle].R.P.R.G.[am]}$$$$V2.0", "SMILES": "CCCC[C@H](NC(=O)[C@H](CC(C)C)N(C)C(=O)[C@H](Cc1ccccc1)NC(=O)[C@H](Cc1ccc(O)cc1)NC(=O)CN1CCN(CCNC(=O)CN(C)C(=O)CN(C)C(=O)CN(C)C(=O)CN(C)C(=O)CN(C)C(=O)CN(C)C(=O)CN(C)C(=O)CN(C)C(=O)CN(C)C(=O)CC[C@H](NC(=O)CC[C@H](NC(=O)CC[C@H](NC(=O)CCCCCCCCCCCCCCCCC(=O)O)C(=O)O)C(=O)O)C(=O)O)CC1)C(=O)N[C@@H](CCCNC(=N)N)C(=O)N1CCC[C@H]1C(=O)N[C@@H](CCCNC(=N)N)C(=O)NCC(N)=O"}, "B8": {"name": "C20DA-gGlu3-Sar9-AEPipAc-Tyr-Phe-NMeLeu-Nle-Arg-NMeAla-Arg-Gly-NH2 (peptide)", "peptide": "EEEXXXXXXXXXXYFLXRARG", "HELM": "PEPTIDE1{[O=C(O)CCCCCCCCCCCCCCCCCCC(=O)[*:2]].[gGlu].[gGlu].[gGlu].[Sar].[Sar].[Sar].[Sar].[Sar].[Sar].[Sar].[Sar].[Sar].[O=C(CN1CCN(CCN[*:1])CC1)[*:2]].Y.F.[meL].[Nle].R.[meA].R.G.[am]}$$$$V2.0", "SMILES": "CCCC[C@H](NC(=O)[C@H](CC(C)C)N(C)C(=O)[C@H](Cc1ccccc1)NC(=O)[C@H](Cc1ccc(O)cc1)NC(=O)CN1CCN(CCNC(=O)CN(C)C(=O)CN(C)C(=O)CN(C)C(=O)CN(C)C(=O)CN(C)C(=O)CN(C)C(=O)CN(C)C(=O)CN(C)C(=O)CN(C)C(=O)CC[C@H](NC(=O)CC[C@H](NC(=O)CC[C@H](NC(=O)CCCCCCCCCCCCCCCCCCC(=O)O)C(=O)O)C(=O)O)C(=O)O)CC1)C(=O)N[C@@H](CCCNC(=N)N)C(=O)N(C)[C@@H](C)C(=O)N[C@@H](CCCNC(=N)N)C(=O)NCC(N)=O"}, "B9": {"name": "C18DA-gGlu2-Sar9-AEPipAc-Tyr-Phe-NMeLeu-Nle-Arg-Pro-Arg-Gly-NH2 (peptide)", "peptide": "EEXXXXXXXXXXYFLXRPRG", "HELM": "PEPTIDE1{[O=C(O)CCCCCCCCCCCCCCCCC(=O)[*:2]].[gGlu].[gGlu].[Sar].[Sar].[Sar].[Sar].[Sar].[Sar].[Sar].[Sar].[Sar].[O=C(CN1CCN(CCN[*:1])CC1)[*:2]].Y.F.[meL].[Nle].R.P.R.G.[am]}$$$$V2.0", "SMILES": "CCCC[C@H](NC(=O)[C@H](CC(C)C)N(C)C(=O)[C@H](Cc1ccccc1)NC(=O)[C@H](Cc1ccc(O)cc1)NC(=O)CN1CCN(CCNC(=O)CN(C)C(=O)CN(C)C(=O)CN(C)C(=O)CN(C)C(=O)CN(C)C(=O)CN(C)C(=O)CN(C)C(=O)CN(C)C(=O)CN(C)C(=O)CC[C@H](NC(=O)CC[C@H](NC(=O)CCCCCCCCCCCCCCCCC(=O)O)C(=O)O)C(=O)O)CC1)C(=O)N[C@@H](CCCNC(=N)N)C(=O)N1CCC[C@H]1C(=O)N[C@@H](CCCNC(=N)N)C(=O)NCC(N)=O"}},
  "data": [
    {"biological_target": "T1, human neuromedin U receptor 1 (human, UniProt Q9HB89 24-426)", "T1 sequence (looked up)": "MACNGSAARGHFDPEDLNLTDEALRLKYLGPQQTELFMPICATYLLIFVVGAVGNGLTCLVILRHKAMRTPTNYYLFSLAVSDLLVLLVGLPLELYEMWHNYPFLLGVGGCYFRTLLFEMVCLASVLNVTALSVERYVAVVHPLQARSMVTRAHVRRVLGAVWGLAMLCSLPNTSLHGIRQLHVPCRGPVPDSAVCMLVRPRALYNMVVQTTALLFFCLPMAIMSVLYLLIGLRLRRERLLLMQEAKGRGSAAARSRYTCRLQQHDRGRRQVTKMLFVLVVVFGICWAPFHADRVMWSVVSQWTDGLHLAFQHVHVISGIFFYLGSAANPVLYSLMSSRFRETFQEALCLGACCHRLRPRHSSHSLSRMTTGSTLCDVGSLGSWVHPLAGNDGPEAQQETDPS", "assay": "cell-based or functional assay", "units": {"EC50 (hNMUR1) buffer": "nM"}, "values": [
      {"binder": "B1", "EC50 (hNMUR1) buffer": "> 1000"},
      {"binder": "B2", "EC50 (hNMUR1) buffer": 82},
      {"binder": "B3", "EC50 (hNMUR1) buffer": 670},
      {"binder": "B4", "EC50 (hNMUR1) buffer": 130},
      {"binder": "B5", "EC50 (hNMUR1) buffer": "> 1000"},
      {"binder": "B6", "EC50 (hNMUR1) buffer": 550},
      {"binder": "B7", "EC50 (hNMUR1) buffer": 150},
      {"binder": "B8", "EC50 (hNMUR1) buffer": 440},
      {"binder": "B9", "EC50 (hNMUR1) buffer": 90}
    ]}
  ]
}
